From US20230012273A1 (Boehringer Ingelheim, published 2023)

Columns and labels:
Assay in all cases: SPR, Ab captured, ECD-His analyte
[1] = biological target: T1, human SIRPγ extracellular domain + His-tag (NP_061026.2) (human, UniProt Q9P1W8 29-360)
T1 construct: also called hSIRPγ; HuSIRPγ
Procedure: (§1) The binding affinity of anti-SIRPα antibodies to the various SIRPα analytes is determined by surface plasmon resonance (SPR) using a ProteOn XPR36 (Bio-Rad). The running buffer for this experiment and all dilutions (except where stated) are done in 1×HBS-EP+. […] The sensorchip is deactivated with 1M ethanolamine HCl for 420 sec at a flowrate of 10 μl/min.
(§2) The analyte is injected over the captured antibody for 300 sec at a flowrate of 30 μl/min. The dissociation is done for 600 sec. Two-fold serial dilutions of each SIRP protein (Extracellular Domain+His-Tag) are injected as analyte with the highest concentrations indicated in table 36 below.

[2] = biological target: T2, human SIRPβL/SIRPβ1v3 extracellular domain + His-tag (NP_001129316.1) (human, UniProt Q5TFQ8 30-371)
T2 construct: also called hSIRPβ1v3; HuSIRPβ1v3
T2 sequence (Q5TFQ8 other isoform, or with tags, fused parts or gaps): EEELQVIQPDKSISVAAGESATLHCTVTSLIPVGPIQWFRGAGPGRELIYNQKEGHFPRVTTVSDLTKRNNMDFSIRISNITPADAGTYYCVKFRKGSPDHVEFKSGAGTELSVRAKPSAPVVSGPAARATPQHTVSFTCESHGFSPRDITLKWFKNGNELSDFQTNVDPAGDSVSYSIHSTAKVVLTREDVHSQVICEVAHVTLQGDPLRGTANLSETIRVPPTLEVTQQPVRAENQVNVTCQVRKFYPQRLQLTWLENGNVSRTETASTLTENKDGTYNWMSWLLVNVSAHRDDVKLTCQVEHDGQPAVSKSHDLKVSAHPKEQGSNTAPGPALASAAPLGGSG
Procedure: as §1, §2

[3] = biological target: T3, human SIRPβ1 extracellular domain + His-tag (NP_006056.2) (human, UniProt O00241 30-371)
T3 construct: also called hSIRPβ1; HuSIRPβ1
T3 sequence (O00241 other isoform, or with tags, fused parts or gaps): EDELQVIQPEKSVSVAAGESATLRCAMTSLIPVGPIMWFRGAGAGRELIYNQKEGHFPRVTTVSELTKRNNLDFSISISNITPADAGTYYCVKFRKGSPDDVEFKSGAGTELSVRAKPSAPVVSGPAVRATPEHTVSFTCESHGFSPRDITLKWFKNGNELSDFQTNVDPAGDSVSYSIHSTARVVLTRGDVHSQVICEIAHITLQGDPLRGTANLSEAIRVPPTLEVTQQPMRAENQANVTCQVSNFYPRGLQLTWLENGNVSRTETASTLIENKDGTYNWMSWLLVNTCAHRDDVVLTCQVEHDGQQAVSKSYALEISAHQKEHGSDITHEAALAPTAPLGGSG
Procedure: as §1, §2

[4] = biological target: T4, cynomolgus SIRPβ1 extracellular domain + His-tag (XP_005568598) (cynomolgus monkey)
T4 construct: also called Cyno SIRPβ1; cynoSIRPβ1
T4 chain: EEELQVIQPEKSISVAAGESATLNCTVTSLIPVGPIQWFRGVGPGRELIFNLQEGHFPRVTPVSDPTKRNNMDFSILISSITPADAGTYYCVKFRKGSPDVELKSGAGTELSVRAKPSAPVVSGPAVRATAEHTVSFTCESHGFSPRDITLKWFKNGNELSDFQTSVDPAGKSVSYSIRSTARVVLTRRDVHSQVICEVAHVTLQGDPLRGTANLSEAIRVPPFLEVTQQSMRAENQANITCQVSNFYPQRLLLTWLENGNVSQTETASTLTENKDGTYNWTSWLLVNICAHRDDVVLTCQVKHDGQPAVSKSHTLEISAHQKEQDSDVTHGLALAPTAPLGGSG
Procedure: as §1, §2

[5] = biological target: T5, cynomolgus SIRPγ extracellular domain + His-tag (XP_005568591) (cynomolgus monkey, UniProt Q9P1W8 29-359 (human entry))
T5 construct: also called Cyno SIRPγ; cynoSIRPγ
T5 chain: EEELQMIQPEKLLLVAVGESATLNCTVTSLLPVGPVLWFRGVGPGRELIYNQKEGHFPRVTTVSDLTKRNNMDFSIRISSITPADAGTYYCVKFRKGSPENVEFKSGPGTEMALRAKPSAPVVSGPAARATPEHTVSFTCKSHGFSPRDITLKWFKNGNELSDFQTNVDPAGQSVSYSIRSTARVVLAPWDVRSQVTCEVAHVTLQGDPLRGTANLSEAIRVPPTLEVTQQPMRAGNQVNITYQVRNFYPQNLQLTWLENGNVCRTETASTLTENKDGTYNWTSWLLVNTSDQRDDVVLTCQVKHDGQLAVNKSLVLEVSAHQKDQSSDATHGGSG
Procedure: as §1, §2

[6] = biological target: T6, cynomolgus SIRPβ1v3 extracellular domain + His-tag (XP_005568593) (cynomolgus monkey)
T6 construct: also called Cyno SIRPβ1v3; cynoSIRPβ1v3
T6 chain: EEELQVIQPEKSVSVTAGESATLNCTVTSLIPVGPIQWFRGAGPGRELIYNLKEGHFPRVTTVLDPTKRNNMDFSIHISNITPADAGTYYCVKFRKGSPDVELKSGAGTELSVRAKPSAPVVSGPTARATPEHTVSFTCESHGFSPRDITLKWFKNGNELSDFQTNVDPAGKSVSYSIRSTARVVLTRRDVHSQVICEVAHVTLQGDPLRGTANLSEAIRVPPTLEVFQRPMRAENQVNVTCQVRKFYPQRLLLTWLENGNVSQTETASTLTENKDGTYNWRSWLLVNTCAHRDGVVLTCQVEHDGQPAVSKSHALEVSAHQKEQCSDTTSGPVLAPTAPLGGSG
Procedure: as §1, §2

[7] = biological target: T7, cynomolgus SIRPα extracellular domain + His-tag (EGM_02252) (cynomolgus monkey)
T7 construct: also called CySIRPα EGM_02252; cynoSIRPα
T7 chain: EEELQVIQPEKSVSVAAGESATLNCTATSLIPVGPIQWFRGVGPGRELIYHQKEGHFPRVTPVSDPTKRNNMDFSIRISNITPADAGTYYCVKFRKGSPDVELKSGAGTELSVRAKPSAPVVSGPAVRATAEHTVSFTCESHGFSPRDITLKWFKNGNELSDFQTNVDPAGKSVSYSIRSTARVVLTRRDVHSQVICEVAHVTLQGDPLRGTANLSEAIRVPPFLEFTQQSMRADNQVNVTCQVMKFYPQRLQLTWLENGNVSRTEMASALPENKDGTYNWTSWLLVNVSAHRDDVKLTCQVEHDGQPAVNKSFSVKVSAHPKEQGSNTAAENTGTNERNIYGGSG
Procedure: as §1, §2

[8] = biological target: T8, cynomolgus SIRPα extracellular domain + His-tag (XP_015313155) (cynomolgus monkey)
T8 construct: also called CySIRPα XP_015313155; cynoSIRPα
T8 chain: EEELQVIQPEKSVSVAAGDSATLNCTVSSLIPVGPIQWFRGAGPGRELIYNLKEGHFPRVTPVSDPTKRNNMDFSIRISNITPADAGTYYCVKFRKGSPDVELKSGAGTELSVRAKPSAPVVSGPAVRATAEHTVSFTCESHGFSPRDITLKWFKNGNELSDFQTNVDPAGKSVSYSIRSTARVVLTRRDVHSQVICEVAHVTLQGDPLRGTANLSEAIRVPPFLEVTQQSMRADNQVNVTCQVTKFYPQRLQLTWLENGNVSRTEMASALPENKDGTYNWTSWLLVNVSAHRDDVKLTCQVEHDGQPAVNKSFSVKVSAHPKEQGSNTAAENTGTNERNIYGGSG
Procedure: as §1, §2

T1 sequence (Q9P1W8 29-360): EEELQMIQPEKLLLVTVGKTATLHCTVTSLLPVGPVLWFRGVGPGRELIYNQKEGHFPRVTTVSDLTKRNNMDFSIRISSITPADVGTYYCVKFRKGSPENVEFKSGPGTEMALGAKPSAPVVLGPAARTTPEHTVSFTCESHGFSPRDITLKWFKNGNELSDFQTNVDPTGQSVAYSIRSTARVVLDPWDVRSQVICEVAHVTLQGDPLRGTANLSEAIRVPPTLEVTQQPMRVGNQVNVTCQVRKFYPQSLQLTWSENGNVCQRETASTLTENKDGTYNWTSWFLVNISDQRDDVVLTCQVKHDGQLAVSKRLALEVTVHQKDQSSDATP

B1: Antibody A1 (antibody, human IgG1, kappa, L234A L235A, V domains shown)
VH: EVQLVESGGGLVQPGGSLRLSCAASGFTLSSYDMHWVRQAPGKGLEWVSAIGTAGDTYYTGSVKGRFTISRENAKNSLYLQMNSLRADDTAVYYCVRGGVWDDAFDIWGQGTMVTVSS
VL: DIQMTQSPSSLSASVGDRVTITCRASQGINNYAAWFQQKPGKAPKSLIYTASSLHSGVPSKFSGSGSGTDFTLTISSLQPEDFATYYCQQYVSYPYTFGQGTKLEIKR
notes: also called Antibody Al
[1]
  binding result: no binding (tested: 1000 nM)
[2]
  binding result: no binding (tested: 100 nM)
[3]
  binding result: no binding (tested: 1000 nM)
[4]
  binding result: no binding (tested: 1000 nM)
[5]
  binding result: no binding (tested: 1000 nM)
[6]
  Kd: 557 nM
[7]
  Kd: 543 nM
[8]
  Kd: 369 nM

B2: Antibody A2 (antibody, human IgG1, kappa, L234A L235A, V domains shown)
VH: EVQLVESGGGLVQPGGSLRLSCAASGFTLSSYDMHWVRQATGKGLEWVSAIGTAGDTYYTGSVKGRFTISRENAKNSLYLQMNSLRAADTAVYYCVRGGVWDDAFDIWGQGTMVTVSS
VL: DIQMTQSPSSLSASVGDRVTITCRASQGINNYAAWFQQKPGKAPKSLIYTASSLHSGVPSKFSGSGSGTDFTLTISSLQPEDFATYYCQQYVSYPYTFGQGTKLEIKR
[1]
  binding result: no binding (tested: 1000 nM)
[2]
  binding result: no binding (tested: 100 nM)
[3]
  Kd: 77.5 nM
[4]
  binding result: no binding (tested: 1000 nM)
[5]
  binding result: no binding (tested: 1000 nM)
[6]
  Kd: 552 nM
[7]
  Kd: 584 nM
[8]
  Kd: 424 nM

B3: Antibody A3 (antibody, human IgG1, kappa, L234A L235A, V domains shown)
VH: EVQLVESGGGLVQPGGSLRLSCAASGFTLSSYDMHWVRQATGKGLEWVSAIGTAGDTYYTGSVKGRFTISRENAKNSLYLQMNSLRASDTAVYYCVRGGVWDDAFDIWGQGTMVTVSS
VL: DIQMTQSPSSLSASVGDRVTITCRASQGINNYAAWFQQKPGKAPKSLIYTASSLHSGVPSKFSGSGSGTDFTLTISSLQPEDFATYYCQQYVSYPYTFGQGTKLEIKR
[1]
  binding result: no binding (tested: 1000 nM)
[2]
  binding result: no binding (tested: 100 nM)
[3]
  Kd: 70.3 nM
[4]
  binding result: no binding (tested: 1000 nM)
[5]
  binding result: no binding (tested: 1000 nM)
[6]
  Kd: 564 nM
[7]
  Kd: 571 nM
[8]
  Kd: 438 nM

B4: Antibody A6 (antibody, human IgG1, kappa, L234A L235A, V domains shown)
VH: EVQLVESGGGLVQPGGSLRLSCAASGFTLSSYDMHWVRQAPGKGLEWVSAIGTAGDTYYTGSVKGRFTISRENAKNSLYLQMNSLRAEDTAVYYCVRGGVWDDAFDIWGQGTMVTVSS
VL: DIQMTQSPSSLSASVGDRVTITCRASQGINNYAAWFQQKPGKAPKSLIYTASSLHSGVPSKFSGSGSGTDFTLTISSLQPEDFATYYCQQYVSYPYTFGQGTKLEIKR
[1]
  binding result: no binding (tested: 1000 nM)
[2]
  binding result: no binding (tested: 100 nM)
[3]
  Kd: 65.1 nM
[4]
  binding result: no binding (tested: 1000 nM)
[5]
  binding result: no binding (tested: 1000 nM)
[6]
  Kd: 469 nM
[7]
  Kd: 538 nM
[8]
  Kd: 366 nM

B5: Antibody A7 (antibody, human IgG1, kappa, L234A L235A, V domains shown)
VH: EVQLVESGGGLVQPGGSLRLSCAASGFTLSSYDMHWVRQATGKGLEWVSAIGTAGDTYYTGSVKGRFTISRENAKNSLYLQMNSLRAGDTAVYYCVRGGVWDDAFDIWGQGTMVTVSS
VL: DIQMTQSPSSLSASVGDRVTITCRASQGINNYAAWFQQKPGKAPKSLIYTASSLHSGVPSKFSGSGSGTDFTLTISSLQPEDFATYYCQQYVSYPYTFGQGTKLEIKR
[1]
  binding result: no binding (tested: 1000 nM)
[2]
  binding result: no binding (tested: 100 nM)
[3]
  Kd: 72.2 nM
[4]
  binding result: no binding (tested: 1000 nM)
[5]
  binding result: no binding (tested: 1000 nM)
[6]
  Kd: 494 nM
[7]
  Kd: 609 nM
[8]
  Kd: 389 nM

B6: Antibody A8 (antibody, human IgG1, kappa, L234A L235A, V domains shown)
VH: EVQLVESGGGLVQPGGSLRLSCAASGFTLSSYDMHWVRQAPGKGLEWVSAIGTAGDTYYTGSVKGRFTISRENAKNSLYLQMNSLRAGDTAVYYCVRGGVWDDAFDIWGQGTMVTVSS
VL: DIQMTQSPSSLSASVGDRVTITCRASQGINNYAAWFQQKPGKAPKSLIYTASSLHSGVPSKFSGSGSGTDFTLTISSLQPEDFATYYCQQYVSYPYTFGQGTKLEIKR
[1]
  binding result: no binding (tested: 1000 nM)
[2]
  binding result: no binding (tested: 100 nM)
[3]
  Kd: 69.6 nM
[4]
  binding result: no binding (tested: 1000 nM)
[5]
  binding result: no binding (tested: 1000 nM)
[6]
  Kd: 449 nM
[7]
  Kd: 535 nM
[8]
  Kd: 350 nM

B7: Antibody A9 (antibody, human IgG1, kappa, L234A L235A, V domains shown)
VH: EVQLVESGGGLVQPGGSLRLSCAASGFTLSSYDMHWVRQAPGKGLEWVSAIGTAGDTYYTGSVKGRFTISRENAKNSLYLQMNSLRADDTAVYYCVRGGVWDDAFDIWGQGTMVTVSS
VL: DIQMTQSPSSLSASVGDRVTITCRASQDINNYLAWFQQKPGKAPKSLIYTASSLHSGVPSKFSGSGSGTDFTLTISSLQPEDFATYYCQQYVSYPYTFGQGTKLEIKR
[1]
  binding result: no binding (tested: 1000 nM)
[2]
  binding result: no binding (tested: 100 nM)
[3]
  Kd: 58.8 nM
[4]
  binding result: no binding (tested: 1000 nM)
[5]
  binding result: no binding (tested: 1000 nM)
[6]
  Kd: 257 nM
[7]
  Kd: 227 nM
[8]
  Kd: 156 nM

B8: Antibody A12 (antibody, human IgG1, kappa, L234A L235A, V domains shown)
VH: EVQLVESGGGLVQPGGSLRLSCAASGFTLSSYDMHWVRQATGKGLEWVSAIGTAGDTYYTGSVKGRFTISRENAKNSLYLQMNSLRASDTAVYYCVRGGVWDDAFDIWGQGTMVTVSS
VL: DIQMTQSPSSLSASVGDRVTITCRASQDINNYLAWFQQKPGKAPKSLIYTASSLHSGVPSKFSGSGSGTDFTLTISSLQPEDFATYYCQQYVSYPYTFGQGTKLEIKR
[1]
  binding result: no binding (tested: 1000 nM)
[2]
  binding result: no binding (tested: 100 nM)
[3]
  Kd: 64.4 nM
[4]
  binding result: no binding (tested: 1000 nM)
[5]
  binding result: no binding (tested: 1000 nM)
[6]
  Kd: 279 nM
[7]
  Kd: 249 nM
[8]
  Kd: 182 nM
